The numbers were not newly measured in publication PMC6731456, which cites them from elsewhere.

pKi: −log10 of the molar value.

This data set addresses Apelin receptor (Homo sapiens) (UniProt P35414).
Chain of UniProt P35414 (P35414 whole entry): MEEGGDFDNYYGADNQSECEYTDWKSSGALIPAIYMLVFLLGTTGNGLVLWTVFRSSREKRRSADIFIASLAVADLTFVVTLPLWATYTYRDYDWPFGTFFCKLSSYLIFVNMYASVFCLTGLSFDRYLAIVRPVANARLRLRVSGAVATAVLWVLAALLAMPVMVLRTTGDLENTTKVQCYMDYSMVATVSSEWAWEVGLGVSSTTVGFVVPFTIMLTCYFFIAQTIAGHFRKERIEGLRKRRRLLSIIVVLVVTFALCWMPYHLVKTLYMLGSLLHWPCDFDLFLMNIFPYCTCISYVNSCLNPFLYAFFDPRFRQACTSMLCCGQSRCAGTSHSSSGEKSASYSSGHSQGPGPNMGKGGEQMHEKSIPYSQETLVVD

By pKi is commonly meant the Ki on a negative log10 scale, so that one unit is a factor of ten. Regarding Protamine (from UniProt P69014), the pKi is 6.41.
